The values below come from patent publication EP4388012A1 (dated 2024).

Read-outs that look alike come from different tables or passages of the source.

Assay [1] addresses T1, soluble HLA-E-VL9 complex (HLA-E*01:03 heavy chain refolded with b2M and synthetic VL9 peptide) (human).
Assay [2] has as its target T1, soluble HLA-E-VL9 complex (HLA-E*01:03 …). Briefly: SPR, antibody immobilized on CM5 chip, soluble HLA-E-VL9 flowed, 1:1 model. In general terms: In SPR one partner is held on a chip, and binding of the other changes the refractive index at the surface.

B1: 3H4, murine HLA-E-VL9-specific IgM monoclonal antibody (antibody, V domains shown)
VH: EVQLQESGPELVKPGASVKIPCKASGYTFTDYNMDWVKQSHGKSLEWIGDINPNNGGTIYNQKFKGKATLTVDKSSSTAYMELRSLTSEDTAVYYCARPDYYGSSYGWYFDVWGTGTTVTVSS
VL: DIVITQSPSSMYASLGERVTITCKASQDINSYLSWFQQKPGKSPKTLIYRANRLVDGVPSRFSGSGSGQDYSLTISSLEYEDMGIYYCLQYDEFPLTFGAGTKLELK
notes: also called mAb 3H4; 3H4 IgM
A word on the Kd: it is a measure of binding affinity in units of concentration. A lower Kd goes with tighter binding. For the molecule B1, the Kd in assay [1] worked out at 8.1 µM.

B2: 3H4 as a recombinant human IgG1 (unoptimized, wild-type 3H4 on a human IgG1 backbone, 3H4 Gwt) (antibody, V domains shown)
VH: B1 VH
VL: B1 VL
notes: also called 3H4 IgG; wild-type 3H4 IgG
As to B2, the Kd in assay [2] was found to be 49.8 µM.
